# Laboratory results from patent publication US7052898B2, “Thermostable isomerase and use hereof, in particular for producing tagatose” (Bioneer A/S, priority 2001, dated 2006).
# Read-outs that look alike come from different tables or passages of the source.
# Legend:
# [1] = tested on: L-arabinose isomerase from T. mathranii; test: Metal ion requirement: reactivation of EDTA-dialysed enzyme; format: biochemical, Thermoanaerobacter mathranii; settings: enzyme previously dialysed against 5 mM EDTA, metal salt added
# Description: (§1) Enzyme sample, 10-50 μl, was mixed with 950 μl of assay reagent and incubated at 65° C. for 60 min.
# [2] = cited from earlier work
# [3] = tested on: Lactobacillus gayonii L-arabinose isomerase; settings: read-out: Km for L-arabinose; Reference 5: Nakamatu and Yamanaka (1969); cited from earlier work
# [4] = tested on: Lactobacillus plantarum L-arabinose isomerase; settings: read-out: Km for L-arabinose; Reference 4: Heath et al. (1958); cited from earlier work
# [5] = tested on: Mycobacterium smegmatis L-arabinose isomerase; settings: read-out: Km for L-arabinose; Reference 6: J. Bacteriol. 133: 413-414 (1978); cited from earlier work
# [6] = tested on: Escherichia coli L-arabinose isomerase; settings: read-out: Km for L-arabinose; Reference 3: Patrick and Lee (1968); cited from earlier work
# [7] = tested on: Aerobacter aerogenes L-arabinose isomerase; settings: read-out: Km for L-arabinose; Reference 1: Yamanaka and Wood (1966); cited from earlier work
# [8] = substrate: OC1OC[C@H](O)[C@H](O)[C@H]1O; test: purified protein, by the assay type; settings: other: apparent Km; T. mathranii enzyme produced in E. coli; pH 6.9; 65.0 °C
# [9] = Substrate specificity: D-galactose activity relative to L-arabinose activity; format: biochemical; settings: molar ratio of keto-sugar, substrate 0.5 M, pH 6.9, 65° C.
# Description: as §1
# (§2) The obtained concentrations of the ketoses L-ribulose, D-tagatose or D-fuculose, respectively, were determined by the cysteine-carbazol-sulfuric acid method (Dische, Z. and Borenfreund, E. (1951) J. Biol. Chem. 192: 583-587). Samples were incubated at room temperature for 60 min and the absorbance at 560 nm was measured in a microplate reader. Standard curves showing the colour response of 0-5 mM ketose were made with D-tagatose and D-ribulose, since L-ribulose was not commercially available. (No standard curve was obtained for D-fuculose which was not commercially available.)
# The ratio was calculated from the cysteine-carbazol-sulfuric acid colour responses and the standard curves generated with ribulose and tagatose, respectively.
# [10] = Substrate specificity: D-fucose colour response relative to L-arabinose; format: biochemical; settings: 0.5 M D-fucose, cysteine-carbazol-sulfuric acid method
# Description: as §1, §2
# [11] = Temperature dependence, D-galactose assay; format: biochemical; settings: temperature range of about 60-75° C.
# Description: as §1, §2
# [12] = Bioconversion of D-galactose to D-tagatose with free enzyme; format: biochemical; settings: 65° C.
# Description: as §2
# Control samples without enzyme were treated similarly. Periodically, samples were taken and the concentration of D-tagatose was determined by the cystein-carbazol-sulfuric acid method as described above. The results are shown in Table 2.2A (30% D-galactose) and 2.2B (60% D-galactose).
# [13] = Substrate specificity: other aldo-hexoses, aldo-pentoses and deoxy-sugar; format: biochemical
# Description: as §1, §2
# [14] = pH dependence, D-galactose assay; format: biochemical; settings: D-galactose assays at pH 4, 5, 6, 7, 8 and 9
# Description: as §1, §2
# The buffer used for these assays was a mixture of 25 mM acetic acid, 25 mM 2-[N-morpholino]ethanesulfonic acid (MES), 5 mM MnCl2, and 25 mM tris[hydroxymethyl]-aminomethane (TRIS), which was titrated with HCl or NaOH.
# [15] = end-product inhibition; cited from earlier work
# [16] = initial D-galactose 30% (1.67 M), pH 6.9, 0 h
# [17] = initial D-galactose 30% (1.67 M), pH 6.9, 24 h
# [18] = initial D-galactose 30% (1.67 M), pH 6.9, 48 h
# [19] = initial D-galactose 30% (1.67 M), pH 6.9, 72 h
# [20] = initial D-galactose 60% (3.33 M), pH 6.9, 0 h
# [21] = initial D-galactose 60% (3.33 M), pH 6.9, 24 h
# [22] = initial D-galactose 60% (3.33 M), pH 6.9, 48 h
# [23] = initial D-galactose 60% (3.33 M), pH 6.9, 72 h
molecule,measurement,setting,value
[Cl][Mn][Cl] [MnCl2],restored L-arabinose isomerase activity,[1],100%
O=S(=O)([O-])[O-].[Fe+2] [FeSO4],restored L-arabinose isomerase activity,[1],76%
Lactobacillus plantarum,amount of ketose at equilibrium,[2]; 10° C.,10%
same,amount of ketose at equilibrium,[2]; 25° C.,14%
same,amount of ketose at equilibrium,[2]; 53° C.,16%
OC1OC[C@H](O)[C@H](O)[C@H]1O (stereo partly drawn) [L-arabinose],Km,[3],55 mM
same,Km,[4],28 mM
same,Km,[5],~30 mM
same,Km,[6],60 mM
same,Km,[7],33 mM
"Thermoanaerobacter mathranii DSMZ 11426 L-arabinose isomerase (AraA), wild type, SEQ ID NO:2, produced in E. coli (Thermoanaerobacter mathranii subsp. … (protein) MQTKKKPQIGFLGIMQELYDDMLPGITERQEKYAREVIEQLQDVADFHFPKAAKNRQDIEHIVKEFNEKDLDGIMIVMLTYGPATNIVNALRNNKLPIMLANIQPVPTVTEDWDMGDLTYNQGVHGAQDTANAILRMGIKCPIITEEWHSEEFKKFVGDWAKAVQTIKALRNMKIAQFGRMHGMYDILGDDAAFTRKIGPQINQEYIGEVYRYMETATEEEINAVIEENRKNFYIDPNLSEESHRYAARLQIGFKKFLINKGYDGFTAHFDVFKGDGRFKQIPMMAASNLMAEGYGYAAEGDAVTASLVAAGHVLIGDAHFTEMYAMDFKRNSILMSHMGEGNWKIARKDRPIKLIDRELGIGKLDNPPTIVFMAQPGPATLVSLVSLEGERYRLVVSKGEILDTEEAKYIEMPYFHFRPSTGVKACLDGWLTNGGTHHECLNLGDNTRRWKILCNLLDIEYVEV",Km,[8],80 mM and ˜80 mM
"L-arabinose isomerase from T. mathranii: L-arabinose isomerase (araA gene product, 465 amino acid residues) of Thermoanaerobacter mathranii DSMZ 11426 produced in E. coli; used as cell extract (protein, Thermoanaerobacter matrahnii, araA sequence, used as cell extract) MQTKKKPQIGFLGIMQELYDDMLPGITERQEKYAREVIEQLQDVADFHFPKAAKNRQDIEHIVKEFNEKDLDGIMIVMLTYGPATNIVNALRNNKLPIMLANIQPVPTVTEDWDMGDLTYNQGVHGAQDTANAILRMGIKCPIITEEWHSEEFKKFVGDWAKAVQTIKALRNMKIAQFGRMHGMYDILGDDAAFTRKIGPQINQEYIGEVYRYMETATEEEINAVIEENRKNFYIDPNLSEESHRYAARLQIGFKKFLINKGYDGFTAHFDVFKGDGRFKQIPMMAASNLMAEGYGYAAEGDAVTASLVAAGHVLIGDAHFTEMYAMDFKRNSILMSHMGEGNWKIARKDRPIKLIDRELGIGKLDNPPTIVFMAQPGPATLVSLVSLEGERYRLVVSKGEILDTEEAKYIEMPYFHFRPSTGVKACLDGWLTNGGTHHECLNLGDNTRRWKILCNLLDIEYVEV",D-galactose activity as percent of the L-arabinose activity,[9],21%
same,colour response with D-fucose as percent of the response with L-arabinose,[10],46%
same,share of the maximum activity retained,[11],≥ 70%
same,Conc. of D-tagatose,[12]; [16],0 mM
same,Percent bioconversion,[12]; [16],0
same,Conc. of D-tagatose,[12]; [17],427 mM
same,Percent bioconversion,[12]; [17],25
same,Conc. of D-tagatose,[12]; [18],450 mM
same,Percent bioconversion,[12]; [18],26
same,Conc. of D-tagatose,[12]; [19],422 mM
same,Percent bioconversion,[12]; [19],25
same,Conc. of D-tagatose,[12]; [20],0 mM
same,Percent bioconversion,[12]; [20],0
same,Conc. of D-tagatose,[12]; [21],462 mM
same,Percent bioconversion,[12]; [21],14
same,Conc. of D-tagatose,[12]; [22],542 mM
same,Percent bioconversion,[12]; [22],16
same,Conc. of D-tagatose,[12]; [23],622 mM
same,Percent bioconversion,[12]; [23],19
same,enzyme activity with D-arabinose,[13]; substrate D-arabinose,No significant enzyme activity
same,enzyme activity with D-glucose,[13]; substrate D-glucose,No significant enzyme activity
same,enzyme activity with D-mannose,[13]; substrate D-mannose,No significant enzyme activity
same,enzyme activity with D-ribose,[13]; substrate D-ribose,No significant enzyme activity
same,enzyme activity with D-xylose,[13]; substrate D-xylose,No significant enzyme activity
same,enzyme activity with L-fucose,[13]; substrate L-fucose,No significant enzyme activity
same,enzyme activity with L-ribose,[13]; substrate L-ribose,No significant enzyme activity
same,pH of highest activity,[14],8
"β-glycosidase from Sulfolobus solfataricus: extremely thermostable β-glycosidase from the thermoacidophilic archaeon Sulfolobus solfataricus, used as lactase (protein, UniProt P22498 1-489, looked up) Beta-galactosidase: MYSFPNSFRFGWSQAGFQSEMGTPGSEDPNTDWYKWVHDPENMAAGLVSGDLPENGPGYWGNYKTFHDNAQKMGLKIARLNVEWSRIFPNPLPRPQNFDESKQDVTEVEINENELKRLDEYANKDALNHYREIFKDLKSRGLYFILNMYHWPLPLWLHDPIRVRRGDFTGPSGWLSTRTVYEFARFSAYIAWKFDDLVDEYSTMNEPNVVGGLGYVGVKSGFPPGYLSFELSRRAMYNIIQAHARAYDGIKSVSKKPVGIIYANSSFQPLTDKDMEAVEMAENDNRWWFFDAIIRGEITRGNEKIVRDDLKGRLDWIGVNYYTRTVVKRTEKGYVSLGGYGHGCERNSVSLAGLPTSDFGWEFFPEGLYDVLTKYWNRYHLYMYVTENGIADDADYQRPYYLVSHVYQVHRAINSGADVRGYLHWSLADNYEWASGFSMRFGLLKVDYNTKRLYWRPSALVYREIATNGAITDEIEHLNSVPPVKPLRH",inhibition by galactose,[15],not to be inhibited
same,inhibition by glucose,[15],only moderately inhibited
